Measured values reported in article doi:10.1101/2022.04.26.489556.

Target: T1, Rv1019 (TetR family regulator) (UniProt P96381 1-197)
T1 sequence: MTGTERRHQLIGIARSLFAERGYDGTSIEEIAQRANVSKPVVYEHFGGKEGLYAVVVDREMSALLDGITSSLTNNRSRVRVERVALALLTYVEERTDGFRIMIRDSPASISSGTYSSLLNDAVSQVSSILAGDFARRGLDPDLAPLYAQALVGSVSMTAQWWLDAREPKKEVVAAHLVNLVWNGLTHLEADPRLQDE
Test: EMSA

B1: MSMEG_1885 palindrome (MS_1886 PAL oligos) (dsDNA)
DNA 1: TAAGTTACGGTACCGTAGGTTG
DNA 2: CAACCTACGGTACCGTAACTTA
binding result: binds
